Laboratory results reported in the RNAGym collection of RNA variant scans (doi:10.1073/pnas.2313332121).

B1: TPR t1 (parent)
chain: GACCAAUCUGCCCUCAGAGCUCGAGAACAUCUUCGGAUGCAGAGGAGGCAGGCUUCGGUGGCGCGAUAGCGCCAACGUCCUCAACCUCCAAUGCAUCCCACCACAUGAUGAUGCCUGAAGAGCCUUGGUUUUUUG

Variants of: B1
Assay: polymerase ribozyme fitness, log enrichment relative to wild type (log ratio); higher = more active; in vitro selection for triplet polymerase activity
Summary of the method: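 Mutant libraries of both subunits of a heterodimeric triplet polymerase ribozyme were PCR-built, transcribed, and selected once in triplicate, with frozen incubation at −7 °C and capture of gel-excised extended constructs on streptavidin beads before RT-PCR. Illumina sequencing of input and output libraries was filtered to genotypes with ≥10 input reads and ≥1 read per output. Fitness is the logarithm of genotype enrichment over wild-type enrichment, using inverse-variance-weighted replicate averages. The logarithm is base 2.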

Variant | polymerase ribozyme fitness (log ratio)
GACCAAUCUGCCCUCAGAGCUCGAGAACAUCUUCGGAUGCCGAGGAGGCAGGCUUCGGUGGCACGAUAUCGCCAACGUCCUCAACCUCCAAUCCAUCCCAACACAUGAUGAUGCCUGAAGAGCCUUGGUUUUUUG [A41C G63A G69U G93C C101A] | -4.78
GACCAAUCUGCCCUCAGAGCUCGAGAACAUCUUCGGAUGCGGUGGAGGCAGGCUUCGGUGGCGCGAUAGUGCCAACGUCCUCAACCUCCACUGCAUCCCACCACAUGAUGAUGCCUGAAGAGCCUUGGUUUUUUG [A41G A43U C70U A91C] | -3.27
GACCAAUCUGCCCUCAGAGCUCGAGAACAUCUUCGGAUGCCGAGGAGGCAGGCUUCGGUGGCGCGAUAGCGCCAACGGCCUCAACCUCCAAUGCAUCCCACCACAUGAUGAUGCCUGAAGAGCCUUGGUUUUUUG [A41C U78G] | -1.18
GACCAAUCUGCCCUCAGAGCUCGAGAACAUCUUCGGAUGCCGAGGAGGCAGGCUUCGGUGGCGCGAUAGCGCCAACGUCCUCAACCUCCAAUGCAUCCCACCACAUGAUGAUGCCUUAAGAGCCUUGGUUAUUUG [A41C G117U U131A] | -4.61
GACCAAUCUGCCCUCAGAGCUCGAGAACAUCUUCGGAUGCCGAGGAGGCAGGCUGCGGCGGCGCGAUAGCGCCAACGUCCUCAACCUCCAAUCCAUCCCACCACAUGAUGAUGCCUGAAGAGCCUUGGUUUUUUG [A41C U55G U59C G93C] | -2.33
GACCAAUCUGCCCUCAGAGCUCGAGAACAUCUUCGGAUGCCGAGGAGGCAGGCUUCGGUGGCGCGAUAGCGCCAACGUCCUCAACCUCCAAUGCAUCCCACCACAUGAUGAUGCCUGAAGAGCCUUGCUUUUUUG [A41C G128C] | -3.34
GACCAAUCUGCCCUCAGAGCUCGAGAACAUCUUCGGAUGCCGAGGAGGCAGGCUGCGGUGGCGCGCUAGCGCCAACGUCCUCAACCUCCAAUCCAUCCCACCACAUGAUGAUGCCUGAAGAGCCUUGGUUUUUUG [A41C U55G A66C G93C] | -4.9
GACCAAUCUGCCCUCAGAGCUCGAGAACAUCUUCGGAUGCCGAGGAGGCAGGCUUCGGUGGCGCGAUACCGCCAACGUCCUCAACCUCCAAUGCAUCCCACCACAUGAUGAUGACUGAAGAGCCUUGGUUUUUUG [A41C G69C C114A] | -3.84
GACCAAUCUGCCCUCAGAGCUCGAGAACAUCUUCGGAUGCCGAGGAGGCAGGCUUCGGUGGCGCGAUAGCGCCAACGUCCUCAACCUCCAAUUCAUCCCACCACAUGAUGAUGCCUGAAGAGCCUUGGUUUUUUG [A41C G93U] | -1.92
GACCAAUCUGCCCUCAGAGCUCGAGAACAUCUUCGGAUGCCGAGGAGGCAGGCUACGGUGUCGCGAUAGCGCCAACGUCCUCAACCUCCAAUGCAUCCCACUACAUGAUGAUGCCUGAAGAGCCUUGGUUUUUUG [A41C U55A G61U C102U] | -3.48
GACCAAUCUGCCCUCAGAGCUCGAGAACAUCUUCGGAUGCCGAGGAGGCAGGCUUCGGGGGCGCGAUAGCGCCAACGUUCUCAACCUCCAAUGCAUCCCACCACAUGAUGAUGCCUGAAGAGCAUUGGUUUUUUG [A41C U59G C79U C124A] | 0.881
GACCAAUCUGCCCUCAGAGCUCGAGAACAUCUUCGGAUGCCGAGGAGGCAGGCUUCGGUGGCGCGAUAGCGCCAACGUCCUCAACCUCCAAGGCAUCCCACCACAUGAUGAUGCCUGAAUAGCCUUGGCUUUUUG [A41C U92G G120U U129C] | -2.62
GACCAAUCUGCCCUCAGAGCUCGAGAACAUCUUCGGAUGCCGAGGAGGCAGGCUUCGGUGGCGCGAUAGCGCCAACGCCCUCAACAUCCAAUGCAUCCCACCACAAGAUGAUGCCUGAAGAGCCUUGGUUUUUUG [A41C U78C C86A U106A] | -1.09
GACCAAUCUGCCCUCAGAGCUCGAGAACAUCUUCGGAUGCCGAGGAGGCAGGCUUCGGUGGCGCGAUAUCGCCAACGUGCUCAACCUCCAAUGCAUCCCACCACAAGAUGAUGCCUGAAGUGCCUGGGUUUUUUG [A41C G69U C79G U106A A121U U126G] | -0.691
GACCAAUCUGCCCUCAGAGCUCGAGAACAUCUUCGGAUGCCGAGGAGGCAGGCUUCGGUGGCGCGAUAGCGCCAACGUCCUCAACCUCCAAUGCAUCCCACCACAUGAUGAUGCCUGAAGAGCCUUGGUUUUGUG [A41C U133G] | -1.16
GACCAAUCUGCCCUCAGAGCUCGAGAACAUCUUCGGAUGCGGAGGCGGCAGGCUUCGGUGGCGCGAUAGCGCCAACGUCCUCAACCUCCAAUGCAUCCCACCACAUGAUGAUGCCUGAAGAGCCUUGGUUUUUUG [A41G A46C] | -1.95
GACCAAUCUGCCCUCAGAGCUCGAGAACAUCUUCGGAUGCGGAGGCGGCAGGCUUCGGUGGCGCGAUAGCGCCAACGUCCUCAACCUUCAAUGCAUCCCACCAUAUGAUGAUGCCUGAAGAGCCUUGGUUUUUUG [A41G A46C C88U C104U] | -0.948
GACCAAUCUGCCCUCAGAGCUCGAGAACAUCUUCGGAUGCCGAGGAGGCAGGCUUCGGUGGCUCGAUAGCGCCAACGUCCUCAACCUCCAAUCCAUCCCACCACAUGAUGAUGCCUAAAGAGCCUUGGUUUAUUG [A41C G63U G93C G117A U132A] | -4.71
GACCAAUCUGCCCUCAGAGCUCGAGAACAUCUUCGGAUGCCGAGGAGGCAGGCUUCGGUGGCGCGAUAGCGCCAACGUCCUCAACCUCCAAAGCAUCCCACCACAUGAUGAUGCCUGAAGAGCCUUGGUUUUUUG [A41C U92A] | -2.21
GACCAAUCUGCCCUCAGAGCUCGAGAACAUCUUCGGAUGCGGUGGAGGCAGGCUUCGGUGUCGCGAUAGCGCCAACGUCCUCAACCUGCAAUGGAUCCCACCACAUGAUGAUGCCUAAAGAGCCUUGGUUUUUUG [A41G A43U G61U C88G C94G G117A] | -7.23
GACCAAUCUGCCCUCAGAGCUCGAGAACAUCUUCGGAUGCCGAGGAGGCAGGCUUCGGUGGCGCGAUAGCGCCAACGUCCGCAACCUCCAAUGCAUCCCACCACAUGAUGAUGCAUGAAGAGCCUUGGUUUUUUG [A41C U81G C115A] | -4.91
